The results in this text go back to article PMC9663308 (2022).

Positions count from the first letter of the chain named. Ends that are not written are not given here.

Test [1] has as its target T1, ClpA D1 pore-2 loop variant GGG (AAS 295–297 to GGG), hexamer (E. coli, UniProt P0ABH9 1-758, M169T | 295–297 AAS to GGG).
T1 sequence: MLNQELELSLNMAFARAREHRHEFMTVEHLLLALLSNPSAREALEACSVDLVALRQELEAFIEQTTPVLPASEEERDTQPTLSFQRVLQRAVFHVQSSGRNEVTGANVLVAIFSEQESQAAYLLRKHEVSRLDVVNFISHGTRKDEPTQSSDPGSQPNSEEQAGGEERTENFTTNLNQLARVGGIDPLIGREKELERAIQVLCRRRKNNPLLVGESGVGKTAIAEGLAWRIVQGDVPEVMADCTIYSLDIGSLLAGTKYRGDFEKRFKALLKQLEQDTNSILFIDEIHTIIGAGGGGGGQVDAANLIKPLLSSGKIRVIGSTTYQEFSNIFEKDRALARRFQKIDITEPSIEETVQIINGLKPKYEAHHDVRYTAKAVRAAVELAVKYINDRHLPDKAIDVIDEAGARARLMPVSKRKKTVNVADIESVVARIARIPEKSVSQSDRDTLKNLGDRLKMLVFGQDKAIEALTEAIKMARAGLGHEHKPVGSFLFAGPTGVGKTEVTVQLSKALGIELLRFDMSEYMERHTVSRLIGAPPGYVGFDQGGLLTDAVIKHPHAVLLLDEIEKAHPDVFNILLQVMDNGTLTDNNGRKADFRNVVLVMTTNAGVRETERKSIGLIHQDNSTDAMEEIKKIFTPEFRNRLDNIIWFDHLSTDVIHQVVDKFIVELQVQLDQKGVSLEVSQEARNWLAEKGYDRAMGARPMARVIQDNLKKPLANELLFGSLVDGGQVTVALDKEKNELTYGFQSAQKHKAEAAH
As to the kind of experiment: FP; equimolar ClpA6 + ClpS titrated against N-degron peptide.

The target in test [2] is T2, ClpA D1 pore-2 loop variant Δ295–297, hexamer (E. coli, UniProt P0ABH9 1-758, M169T | Δ295–297).
T2 sequence: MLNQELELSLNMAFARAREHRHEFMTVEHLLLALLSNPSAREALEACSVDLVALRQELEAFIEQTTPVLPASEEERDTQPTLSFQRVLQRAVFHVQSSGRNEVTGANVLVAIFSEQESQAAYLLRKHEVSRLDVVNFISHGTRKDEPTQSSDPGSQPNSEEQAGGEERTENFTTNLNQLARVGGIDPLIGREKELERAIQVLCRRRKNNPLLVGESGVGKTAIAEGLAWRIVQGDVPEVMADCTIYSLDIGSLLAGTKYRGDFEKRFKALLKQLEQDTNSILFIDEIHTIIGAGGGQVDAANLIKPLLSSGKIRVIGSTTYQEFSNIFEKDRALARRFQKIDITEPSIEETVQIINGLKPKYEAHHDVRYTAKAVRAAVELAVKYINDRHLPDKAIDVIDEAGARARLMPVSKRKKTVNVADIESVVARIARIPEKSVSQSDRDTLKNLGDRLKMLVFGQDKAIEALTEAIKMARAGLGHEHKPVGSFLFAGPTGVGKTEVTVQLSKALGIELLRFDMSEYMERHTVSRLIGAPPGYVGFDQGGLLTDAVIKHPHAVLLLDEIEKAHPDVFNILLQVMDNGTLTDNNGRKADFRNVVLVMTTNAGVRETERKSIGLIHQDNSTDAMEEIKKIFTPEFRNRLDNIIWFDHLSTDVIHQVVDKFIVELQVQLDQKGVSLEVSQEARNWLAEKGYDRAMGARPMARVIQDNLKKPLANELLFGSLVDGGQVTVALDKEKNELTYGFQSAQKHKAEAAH
The description is as above.

The target of test [3] is T3, ClpA D1 pore-2 loop variant QTQ (AAS 295–297 to QTQ), hexamer (E. coli, UniProt P0ABH9 1-758, M169T | 295–297 AAS to QTQ).
T3 sequence: T1 sequence with G295Q, G296T, G297Q
The description is as above.

Test [4] has as its target T4, ClpA D1 pore-2 loop variant KYR (AAS 295–297 to KYR), hexamer (E. coli, UniProt P0ABH9 1-758, M169T | 295–297 AAS to KYR).
T4 sequence: T1 sequence with G295K, G296Y, G297R
The description is as above.

Test [5] addresses T5, ClpA (laboratory 'wild-type' ClpA carrying M169T), hexamer (E. coli, UniProt P0ABH9 1-758, M169T). Described as above.
The target of test [6] is T1, ClpA D1 pore-2 loop variant GGG (AAS …). Description: FP.
Test [7] concerns the target T2, ClpA D1 pore-2 loop variant Δ295–297, …. Description: FP.
For a further test, the target named is T6, ClpS adaptor (E. coli, UniProt P0A8Q6 1-106).
T6 chain: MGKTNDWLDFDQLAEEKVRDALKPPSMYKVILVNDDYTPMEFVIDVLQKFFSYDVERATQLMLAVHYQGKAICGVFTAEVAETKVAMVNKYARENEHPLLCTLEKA
Description: FP.

In test [8] the target is T3, ClpA D1 pore-2 loop variant QTQ (AAS …). Description: FP.
The target in test [9] is T4, ClpA D1 pore-2 loop variant KYR (AAS …). Description: FP.
For test [10], the target named is T5, ClpA (laboratory 'wild-type' ClpA …). Description: FP.

B1: ClpS•N-degron peptide complex (ClpS with LLYVQRDSKEC-fluorescein) (complex)
chain 1: T6 chain
chain 2: LLYVQRDSKEC
modifications: fluorescein (printed as LLYVQRDSKEC-fluorescein)
With B1, the equilibrium dissociation constant (Kd) in test [1] was 41 nM; in test [2], 44 nM; in test [3], 65 nM; in [4] it was 73 nM; in test [5] it was 56 nM.

B2: LLYVQRDSKEC-fluorescein N-degron synthetic peptide (peptide)
peptide: LLYVQRDSKEC-fluorescein
modifications: not fully specified (residue 11); printed as LLYVQRDSKEC-fluorescein
As to B2, the Kd in test [6] was determined as 670 nM; in test [7], 1200 nM; with ClpS adaptor it was 2600 nM; in [8] it was 900 nM; in test [9], 550 nM; in [10], 1200 nM.
